Measured values as given in the nanobody polyreactivity screen of Harvey et al. (2022).

Experiment: yeast display, Sf9 membrane polyspecificity reagent, FACS + sequencing; frameworks hold sequencing errors
Summary of the method: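 Using colony PCR, genes from sorted yeast display clones were amplified, then sequenced on MiSeq at 2 × 250 and filtered by CDR length. The clones had been stained with 10% biotinylated, detergent-solubilized Sf9 membrane reagent for 1 hour at 4 °C and sorted by FACS into low and high (top ~1%) gates on anti-HA and streptavidin fluorescence. Polyreactivity labels come from the gate of origin.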

| Sequence | polyreactivity (PSR sort gate) |
| --- | --- |
| QVLLVESGGGLVQAGGSLRLSCAASGLTFERYAMGWYRQAPGKERELVAAISIRGGSTYYADSVKGRFTISRDKAMNTVYFQMKSLKPEDTAVDYCSADGSGREYDYWGQGTQVTVSS | low polyreactivity |
| QVQLVESGGGLVQAGGSLRLICAASGRTFRYYTMGWYRQAPGKEREFVAAISSTGGTYYADSVKGRFTNSRDNAKNTVYFQMNSLKPEDTAVYYWAAYRWGILSAYYYAWYGYWGQGTQVTVSS | low polyreactivity |
| QVQLVESGGGLVQAGGSLRLSCAASGFTFYPYAMGCYRQAPGKERELVDAISNGASTHYADSVKGRFTISRDNAKNTVYLQMNSLKPEDTAVYYCNAYTRYPFYFVTSKYDYWGQGTQVTVSS | low polyreactivity |
| QVQLVESGGGLVQAGGSLRISCAASGSTFSGNSMGRYRPAPGKERELFAAINSVRTYYADSVKGRFTISRDNAKNTVYLQMNSLIPEDTAVFSCAARQGYSSRFPAKGYYWGQGTQVTVSS | high polyreactivity |
| QVQLVESGGGLVQAGGSLRLSCAASGSNFDIYAMGWSRQAPGKERELVAAISWNGGDTTYADSVKGRFTISRDNAKNTVYLQLNSLKPEDTAVYYCAADLGYWVADYYWGQGTQVTVSS | high polyreactivity |
| QVQLVESGGGLVQAGGSLRLSCAASGSIFDTYAMGCYRPAPGKERELVAAICWSDTSTYADSVKGRFTISRDNAKNTVYLQMNSMKTEDTAVSYCAADFYYYSYYEYVYWGQGTLVTVSS | low polyreactivity |
| QVQLVESGGGLVQAGGSLRLSSAASGRTFGRYAMGWYRQAPGKERELVAAITRSGSSTYYADSVKGRFTISRDNAKNTVYLQMNSLKPEDTAVYYCAALYGPFYSTGEYWGQGTQVTVSS | high polyreactivity |
| QVQLVESVGGLVQEGGSLRLSCAASGSIRYAMGRYRQAPGKERELDAAISGRGGNTYYADSVKGSFTISRDNAKNTVYLQMNSLKPEDTAVYYCATRGNRVLTGTRYDYWGQGTQITVSS | high polyreactivity |
| QVQIVETGGGLVQAGGSLRLSCAASGSIFSAYVMGWYRQAPGKERELVAAITRTGGRTYYADSVKGRFTISRDNAKNTVYLQMNSLKPEDTAVYYCAKEAITRTFPYRHEYWGQGTQVTVSS | low polyreactivity |
| QVQLVESGGGLVQAGGSLRLSCVASGRIFWANAIGWYRQAPGKERELVAAITYSGGTTYYADSVKGRFTISRDNAKNTVYLQMNSLKPEATAVYYCAKVGRGNNYWGQGTQVTVSS | high polyreactivity |
| QVQLVESGGGLVQAGGSLRLSCAASGFTFYLYTMGWYRQAPGKERELVATITSDGGTNYADSVKGRFTISRDNAKNTVYLQMNSLKPEDTAVYYCNAASRRGSRKQAKYDYWGQGTQVTVSS | low polyreactivity |
| QVQLVESGGGLVQAGGSLRLSCAASGRIFLGNAMGWYRQAPGKERELVAAIDASGGSTYYADSVKGRFTISRDNAKNTVYLQMNSLKPVDTAVYYCNAEPRYYSGGHGYDYWGQGTQVTVSS | low polyreactivity |
| QVQLVESGGGLVQAGGCLRLSCAASGRISSSYAMGWYRLAAGKERELVAAITSRGGSTYYADSVKGRFTISRDNAKNTVYLQMNSLKPEDTAVYYCNAPGYLTYDHSYDYWGQGTQVTVSS | low polyreactivity |
| QVQLVESGGGLVQAGGSLRLSCAASGSTLGINAMGWYRQAPGKERELVAAITWNGGSTYYADSVKGRFTISRDNAKNTVYLQMNSLKPEDTAVYYCAARTYSSRYYRTREGFDYYYWGQGTQVTVSS | high polyreactivity |
| QVQLGESVVCLDQAGVSLPLSCAASGFTFKYYTMRWFRQAPGKERELVAAISRRGGSTYYADSVKGRFTISRDNAKNTVYLQMKSLKPEDTAVYYCAADYRYVSTPYGYDYWGQGTQVTVSS | high polyreactivity |
| QVQLVESGGGLVQAGGSLRLSCAASGSIFRVYAMGWYRQAPGKERELVASISRRGGSTYYADSVKGRFTISRDNAKNTVYLQMNSLKPEDTAVYYCAAEFVIGGHGYDYWGQGTQVTVSS | high polyreactivity |
| QVQLVESGGGLVQAGGSLRLSCAASGRIFTDYTMGWYRQAPGKERELVAAISYSGGSTYYADSVKGRFTISRDNAKNSVYLQMNSLKPEDTAVYYCNRDPQKYRWIPRYDYWGHGTQVTVSS | low polyreactivity |
| QVQRVESGGGLVQAGGSLRLSCAGTGSIFTSNAMRWYRQARGNERELVASISYISGGTYYADSVKGRFTISRDNAKNTVYLQMNSLKPEDTAVYYCAAEQTWGSCQYDPRTYDYWGQGNQVTVSS | low polyreactivity |
| QVQLVESGGGLVQAGGSLRLSCAASGFTFFDYVMGWYRQAPGKERELVAAISSSGGSTNYADSVKGRFTISRDHAKNTVYLQMNSLKPEDTAVYYCNKVTYGYAYWRYDGYDYWGQGTQVTVSS | low polyreactivity |
| QVQLVESGGGLVQAGGSLRLSCAASGSTFQNNAMGWSRQAPGKERELVAGITGGGGNTNYADSVKGRFTISRDNTKNTVYLQMNSRTPEDTAVYYCAADDPWLGVDFGYWGQGTQVTLSS | low polyreactivity |
| QVQLVESGGGLVQAGGSLRLSCAASGSISTYYAMGWYRQAPGKERELVAAITRNGGSTYYADSVKGRFTISRDNSKNTVYLQMNSLKPEDTAVYYCAARNAFGTYYYWGQGTQVTVSS | high polyreactivity |
| QVQHVESRGGLVQAGGSLRLSCAASGSTFGVYAMGRYRQAPGKERELDASISSGGRTKYADSVKGRFTISRDNAKNTVYLQMNSLKPEDTAVYFCAARIRYLGVRDNDNYYCGQGTQVTVSS | low polyreactivity |

| Sequence | polyreactivity (PSR sort gate) |
| --- | --- |
| QVQLVESGGGLVQAGGRHPVSCAASGRTIAYNAKGLYRQATGKERELVASITSGGSTNYADSVKGRFTISRDYAKNTVYLQMNSLKQEHTADYYFNKDGKYHRVLFEYWGQGTQVTVSS | low polyreactivity |
| QVQLVESGGGLVQAGGSLRLSCAASGRNFYSYSMGWYRQEPGKERELVATITSNDGGTDYADSVKGRFTISRDNAKNTVYLQMNSLKPEDTAVYYCNAEDVLPEVGNRYNYWGQGTQVTVSS | low polyreactivity |
| QVQLVESGGGLVQAGGSLRLSCAASGGTFLAYAMGWYRQAPGKERELVAAITRRGTRTYYADSVKGRFTISRDNANNTVYLQMNSLKPEDTAVYYCAVSGGFYWGQGTQVTVSS | high polyreactivity |
| QVQLVESGGGLVQAGGSLRLSCAASGFIFNKYAMGWYRQAPGKERQLVATIRRDGSTNYADSVKGRFTISRDNAKNTVYLQMNSLKPEDTAVYYCAVRPYYWSRDYYWGQGTQVTVSS | high polyreactivity |
| QVQLVESGGGLVQAGGSLRLSCAASGFTFRGYAMGWYRQAPGKERELVAAITSRGGTTYYADSVKGRFTISRDNAKNTVYLQMNSLKPEDTAVYYCATTGGYTRGIGWYNYWGQGTQVTVSS | high polyreactivity |
| QVQLVESGGGIVQAGGSLRLSCAASGRIFSSYAMGWYRQAPGKERELVAAITRGGSTYYADSVKGRFTISRDNANNTVHLQMNSLKPEDPAVYYCAARPPYRYWFWGNEDYWGQGTQVTVSS | high polyreactivity |
| QLQLVESGGGLVQAGGSLRLSCAASGSIFVVNAMGWYRQAPGKERELVAAISRGGITNYADSVKGRFTISRDNAKNTVYLQMNILKPEDTAVYYCNARGSRWVKPERDYWGQGTQVTVSS | low polyreactivity |
| QVQLVESGGGLVQAGGSLRLSCAASGFIFTYYAMGWYRQAPGKERELVAVISWSGGTTYYADSVKGRFTISRDNAKNTVYLQMNSLKPEDTAVYYCNADRSLLYSRKIEYDYWGQGTQVTVSS | low polyreactivity |
| QVQLVESGGGLVQAGGSLRLSCAASGRTFRSNAMGWYRQAPGKERELVATISRRGVSTYYADSVKGRFTISRDNAKNTVYLQMNSLKPEDTAVYYCTLNVGTTSRWSYDYWGQGTQVTVSS | high polyreactivity |
| QVQLVESGGGLVQAGGSLRLSCAASGSTFFDYAMGWYRQAPGKERELVAAISSGGSTKYADSVKGRFTISRDNAKNTVYLQMNSLKPEDTAVYYCAATRWNGRRGYGYWGQGTQVTVSS | high polyreactivity |
| QVQLVESGAGVVQAGGSLRLSCAASGFTLHSYAMGWYRQAPGKERELVAAITRSGGGTYYADSVKGRFTISRDNAKKTVYLQMNSLKPEDTAVYYCAARFGGQYQHDYWGQGTQVTVSS | high polyreactivity |
| QVQLVESGGGLVQAGSSLRLSCAASGRIFGYYAMGWYRQAPGKEREFVASITYSGGRTYYADSVKGRFTISRDNAKNTVYLQMNSLKPEDTAVYYCAKRQSFLGVSYDYWGQGTQVTVSS | high polyreactivity |
| QVQLVESGGGLGQAGGSLRLSCAASGRTFLFNAMGWYRQAPGKDRELVAAISSGGGSTYYADSVKGRFTISRDNAKNTDYLEMNSLKPEDTAVYFCAAYPYYYRYNYWGQGTQVTVSS | high polyreactivity |
| QVQLVESGGGLVQAGGSLRLSCAASGRIFKGYAMGWYRQAPGKERELVAAITWRGGTTYYADSVKGRFTISRDNAKNTVYLQMTSLKPEDTAVYYCARARPTGYNYWGQGTQVTVSS | high polyreactivity |
| QVQHVESGGGLVQAGGSLRLSGAASGRTFYKNTMGWSRQAPGKERELVAGISQRGGRTYYADSVKGRFTISRDYAKNTVYLQMNSLNPEDTAVYYCAVRSYVHGFDYWGQGTQVTVSS | high polyreactivity |
| QVQLVESGGGLVQAGGSLRLSCAASGRTFTWYTMGCYIQAPGKERELVAAISGSGSRTYYADSVKGRFTISRDNAKNTVYLQMNSLKPEDTAVYYCAKDKSARYRYDYWGQGTQVTVSS | low polyreactivity |
| QVQRVESGGGLVQAGGSLRLSCAASGRILGKYAMGRYIQAPGKEREVVAAIRLRGGSTYYADSVKGRFTISRDNAKNTVYLQMNSLKPEDTAVYYCAATYWDRSQAYNYWGQGTQVTVSY | high polyreactivity |
| QVQLVESGGGLVQAGGSLRLSCAASGITFWNYAMGWYRQAPGKERELVARISRGGSTNYADSVKGRFTISRDNAKNTVYLQMNSLKPEDNAVYYCAARWYSSTQTGNYWGQGTQVTVSS | high polyreactivity |
| QVQLVESGGGLVQAGGSLRLSCAASGFNFDFYAMGWYRQAPGKEREMVAAISKNDGTTYFAYSVKGRFTISRDNAKNTVYLQMNSLKPEDTAVYFCAAESGYPVYTYVSSGVYWGQGTQVTVSS | low polyreactivity |
| QVQLVESGGGLVQAGGSLRLSCAASGFTFGRYAMGWYRQAPGKERELLAGITWSGGSTSYADSVKGRFTISRDNAKNTVYFQMNSLKPEDTAVYYCATRARYTRVQGRRYAYDYWGQGTQVTVSS | high polyreactivity |
| QVQLVESGGGLVQAGGSLRLSCAASGSIFTNNAMGWYRQAPGKERELVAGINISGDSTYYADSVKGRFTISRDNAKNTVYLQMNSLKPEDTAVYYCAAGDGYAGIYDYWGQGTQVTVSS | low polyreactivity |
